Source: patent publication US6518404B1, “Human endothelin-bombesin receptor antibodies” (priority 1994, dated 2003)
Square brackets hold non-standard residues; d marks the D form. Peptide text beside a SMILES is read from it.

How the values were obtained:
[1] = target: T1, ETBR (endothelin-bombesin receptor) expressed in Xenopus oocytes (Homo sapiens, UniProt O15354); assay: Xenopus oocyte assay to identify ligand (voltage-clamp, calcium activated chloride channel activity); assay type: cell-based; conditions: for Cl- current response upon addition of ligand: 10 nM ligand, oocytes injected with RNA from ATCC #75823, clamped at -60 mV; for mean peak ± S.E. peak current response (chloride current): oocytes injected with pHHPEC49 derived RNA transcripts, n=75
T1 construct: expressed in transfected cells; host or cells: Xenopus oocytes microinjected with in vitro transcribed RNA
T1 sequence (O15354 27-613): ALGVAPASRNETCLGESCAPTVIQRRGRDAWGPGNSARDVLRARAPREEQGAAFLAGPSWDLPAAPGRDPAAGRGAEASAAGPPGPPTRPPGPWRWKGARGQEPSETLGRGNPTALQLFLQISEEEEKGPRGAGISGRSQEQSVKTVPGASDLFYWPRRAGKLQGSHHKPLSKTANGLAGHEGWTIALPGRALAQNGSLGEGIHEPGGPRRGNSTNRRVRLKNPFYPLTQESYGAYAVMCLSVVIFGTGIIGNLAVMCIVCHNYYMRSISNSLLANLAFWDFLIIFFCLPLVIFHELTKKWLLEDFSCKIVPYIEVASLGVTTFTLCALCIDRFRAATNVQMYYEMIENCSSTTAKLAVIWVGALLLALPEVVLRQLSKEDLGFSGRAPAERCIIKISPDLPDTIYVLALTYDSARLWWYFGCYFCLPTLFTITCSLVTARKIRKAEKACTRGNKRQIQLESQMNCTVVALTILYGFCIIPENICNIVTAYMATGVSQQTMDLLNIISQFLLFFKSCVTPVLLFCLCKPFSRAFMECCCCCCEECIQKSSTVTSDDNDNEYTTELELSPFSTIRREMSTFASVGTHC
Method: Arrow indicates ET1 addition. […] The mean peak ± S.E. peak current response to ET1 is 150±50 (n=75), ET2 156±55 (n=75) and Bombesin 148±47 (n=75).
(§1) RNA was synthesized in vitro from linearized DNA, ATCC #75823, using an RNA transcription kit. This RNA was microinjected into Xenopus oocytes (10 ng of RNA/occytes). The oocytes were manually defolliculated prior to microinjection to remove any endogenous receptors that might be present in the follicular membranes. The injected oocytes were maintained in modified Barth's medium at 18° C. for 48 hours to allow for receptor protein expression. Electrophysiology was performed using the voltage-clamp technique. Oocytes were clamped at −60 mV and the calcium activated chloride channel activity was recorded in Barth's medium at room temperature. Data were analyzed using Axotape software.
(§2) The ET1 and ET3 mediated response was blocked by the ET receptor peptide antagonist BQ123. […] Since it responds to both ET and Bombesin it represents a novel endothelin-bombesin receptor.

uninjected oocytes = assay: Uninjected Xenopus oocytes (control for endogenous response); assay type: cell-based; conditions: uninjected oocytes (data not shown)
Method: as §1, §2

Compound	Cl- current response upon addition of ligand [1]	change in membrane potential upon addition of ligand (uninjected oocytes)	mean peak ± S.E. peak current response (chloride current) [1] [nanoamps]	effect on ET1 and ET3 mediated response ([1]; oocytes injected with RNA from ATCC #75823)
Neuropeptide Y	did not illicit any response			
AII: related peptide ligand (DRVYIHPF)	did not illicit any response			
endothelin-1 [ET1]	fairly strong Cl^− currents	did not elicit any change in membrane potential	150±50	
CC(C)C[C@@H]1NC(=O)[C@@H](C(C)C)NC(=O)[C@@H]2CCCN2C(=O)[C@@H](CC(=O)O)NC(=O)[C@@H](Cc2c[nH]c3ccccc23)NC1=O [BQ123] (cyclo(L[dW][dD]P[dV]))				blocked
endothelin-3 [ET3]	fairly strong Cl^− currents	did not elicit any change in membrane potential		
endothelin-2 (CSCSSWLDKECVYFCHLDIIW) [ET2, member of the endothelin peptide family]			156±55	
